Experimental data reported in the supplement of paper PMC10567573.

B1: SNAP91 (parent)
chain: FAQPMMRPPFGAAAVPGTQLSPSP

Variants of: B1
Experiment: protein stability index of a GFP-peptide fusion (GPS, HEK-293T) (PSI 1-6); higher = more stable
Conditions: c terminus: a fixed tail appended
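Note: lentivirally expressed fusions sorted by FACS into six bins by GFP to DsRed ratio, PSI derived from sequencing read proportions per bin multiplied by bin number.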

| Variant | protein stability index |
| --- | --- |
| FAQPMMRPPFGAAAVPGTQLTPSP [S21T] | 3.06 |
| FAQPMMRPPFGAAAVPGTQLFPSP [S21F] | 3.01 |
| FAQPMMRPPFGAAAVPGTQLNPSP [S21N] | 3.03 |
| FAQPMMRPPFGAAAVPGTQLYPSP [S21Y] | 3 |
| FAQKMMRPPFGAAAVPGTQLSPSP [P4K] | 1.97 |
| FAQGMMRPPFGAAAVPGTQLSPSP [P4G] | 2.01 |
| FAQIMMRPPFGAAAVPGTQLSPSP [P4I] | 1.96 |
| FAQPMMRPPFGAAAVPGTQLSPDP [S23D] | 3.54 |
| FAQPMMRPPFGAAAVPGTQLSPAP [S23A] | 3.4 |
| FAQPMMRPPFGAAAVPGTQLSPYP [S23Y] | 2.52 |
| FAQPMMRPPFGAAAVPGTQLSPHP [S23H] | 2.96 |
| FAQPMMRPPFGAAAVPGTQLSPCP [S23C] | 3.25 |
| FAQPMMRPPFGAAAVPGTQLSPIP [S23I] | 2.73 |
| FAQPMMRPQFGAAAVPGTQLSPSP [P9Q] | 3.91 |
| FAQPMMRPDFGAAAVPGTQLSPSP [P9D] | 4.04 |
| FAQPMMRPAFGAAAVPGTQLSPSP [P9A] | 3.51 |
| FAQPMMRPPRGAAAVPGTQLSPSP [F10R] | 3.86 |
| FAQPMMRPPWGAAAVPGTQLSPSP [F10W] | 2.1 |
| FAQPMMRPPNGAAAVPGTQLSPSP [F10N] | 4.14 |
| FAQPMMRPPIGAAAVPGTQLSPSP [F10I] | 3.99 |
| FAQPMMRPPFGNAAVPGTQLSPSP [A12N] | 3.54 |
| FAQPMMRPPFGYAAVPGTQLSPSP [A12Y] | 2.53 |
| FAQPMMRPPFGWAAVPGTQLSPSP [A12W] | 2.77 |
| FAQPMMRPPFGFAAVPGTQLSPSP [A12F] | 2.83 |

| Variant | protein stability index |
| --- | --- |
| FAQPMMRPPFGRAAVPGTQLSPSP [A12R] | 3.33 |
| FAQPMMRPPFGMAAVPGTQLSPSP [A12M] | 3.03 |
| FAQPMMRPPFGAAAVPQTQLSPSP [G17Q] | 3.48 |
| FAQPMMRPPFGAAAVPWTQLSPSP [G17W] | 2.49 |
| FAQPMMRPPFGAAAVPRTQLSPSP [G17R] | 3.89 |
| FAQPMMRPPFGAAAVMGTQLSPSP [P16M] | 2.69 |
| FAQPMMRPPFGAAAVWGTQLSPSP [P16W] | 1.78 |
| FAQPMMRPPFGAAAVCGTQLSPSP [P16C] | 2.77 |
| FAQPMMRPPFGAAAVPGNQLSPSP [T18N] | 2.87 |
| FAQPMMRPPFGAAAVPGPQLSPSP [T18P] | 3.14 |
| FAQPMMRPPFGAAAVPGCQLSPSP [T18C] | 2.92 |
| FAQPMMRPPFGAAAVPGSQLSPSP [T18S] | 3.02 |
| FAQPMMRPPFGASAVPGTQLSPSP [A13S] | 3.25 |
| FAQPMMRPPFGACAVPGTQLSPSP [A13C] | 2.39 |
| FAQPMMRPPFGAWAVPGTQLSPSP [A13W] | 1.62 |
| FAQPMMRPPFGAGAVPGTQLSPSP [A13G] | 3.44 |
| FAQPMMTPPFGAAAVPGTQLSPSP [R7T] | 2.67 |
| FAQPMMMPPFGAAAVPGTQLSPSP [R7M] | 2.42 |
| FAQPMMAPPFGAAAVPGTQLSPSP [R7A] | 3.55 |
| FAQPMMHPPFGAAAVPGTQLSPSP [R7H] | 2.81 |
| FAQPMMDPPFGAAAVPGTQLSPSP [R7D] | 3.13 |
| FAQPMMSPPFGAAAVPGTQLSPSP [R7S] | 3.32 |
| FAQPMMRPPFGAAAVPGTQLSMSP [P22M] | 2.86 |
| FAQPMMRPPFGAAAVPGTQLSASP [P22A] | 3.28 |

| Variant | protein stability index |
| --- | --- |
| FAQPMMRPPFGAAAVPGTQLSHSP [P22H] | 3.14 |
| FAQPMMRPPFGAAHVPGTQLSPSP [A14H] | 2.99 |
| FAQPMMRPPFGAAIVPGTQLSPSP [A14I] | 2.82 |
| FAQPMMRPPFGAACVPGTQLSPSP [A14C] | 2.81 |
| FAQPMMRPPFGAAAVPGTQNSPSP [L20N] | 3.26 |
| FAQPMMRQPFGAAAVPGTQLSPSP [P8Q] | 3.36 |
| FAQPMMRTPFGAAAVPGTQLSPSP [P8T] | 3.02 |
| FAQPMMRLPFGAAAVPGTQLSPSP [P8L] | 2.87 |
| FAQPMMREPFGAAAVPGTQLSPSP [P8E] | 3.75 |
| FAQPMMRNPFGAAAVPGTQLSPSP [P8N] | 2.98 |
| FAQPMMRHPFGAAAVPGTQLSPSP [P8H] | 3.16 |
| FAQPMMRKPFGAAAVPGTQLSPSP [P8K] | 2.97 |
| FAQPMMRVPFGAAAVPGTQLSPSP [P8V] | 3.11 |
| FAQPQMRPPFGAAAVPGTQLSPSP [M5Q] | 3.48 |
| FAQPHMRPPFGAAAVPGTQLSPSP [M5H] | 2.86 |
| FAQPNMRPPFGAAAVPGTQLSPSP [M5N] | 3.22 |
| FAQPSMRPPFGAAAVPGTQLSPSP [M5S] | 3.31 |
| FAQPPMRPPFGAAAVPGTQLSPSP [M5P] | 4.01 |
| FAQPFMRPPFGAAAVPGTQLSPSP [M5F] | 2.54 |
| FAYPMMRPPFGAAAVPGTQLSPSP [Q3Y] | 1.82 |
| FANPMMRPPFGAAAVPGTQLSPSP [Q3N] | 2.98 |
| IAQPMMRPPFGAAAVPGTQLSPSP [F1I] | 4.02 |
| VAQPMMRPPFGAAAVPGTQLSPSP [F1V] | 4.42 |
| DAQPMMRPPFGAAAVPGTQLSPSP [F1D] | 4.55 |

| Variant | protein stability index |
| --- | --- |
| MAQPMMRPPFGAAAVPGTQLSPSP [F1M] | 4.26 |
| FAQPMMRPPFGAAAVPGTQLSPSW [P24W] | 2.77 |
| FAQPMMRPPFGAAAVPGTQLSPSL [P24L] | 2.35 |
| FAQPMLRPPFGAAAVPGTQLSPSP [M6L] | 3.13 |
| FAQPMKRPPFGAAAVPGTQLSPSP [M6K] | 3.65 |
| FAQPMNRPPFGAAAVPGTQLSPSP [M6N] | 3.19 |
| FAQPMTRPPFGAAAVPGTQLSPSP [M6T] | 3.68 |
| FAQPMSRPPFGAAAVPGTQLSPSP [M6S] | 3.1 |
| FAQPMMRPPFRAAAVPGTQLSPSP [G11R] | 4.01 |
| FAQPMMRPPFKAAAVPGTQLSPSP [G11K] | 3.55 |
| FAQPMMRPPFGAAAVPGTCLSPSP [Q19C] | 2.57 |
| FAQPMMRPPFGAAAVPGTHLSPSP [Q19H] | 3.08 |
| FAQPMMRPPFGAAAVPGTRLSPSP [Q19R] | 3 |
| FAQPMMRPPFGAAAVPGTALSPSP [Q19A] | 2.98 |
| FAQPMMRPPFGAAAVPGTVLSPSP [Q19V] | 2.96 |
| FAQPMMRPPFGAAAVPGTYLSPSP [Q19Y] | 2.69 |
| FAQPMMRPPFGAAAVPGTMLSPSP [Q19M] | 2.89 |
| FEQPMMRPPFGAAAVPGTQLSPSP [A2E] | 4.45 |
| FYQPMMRPPFGAAAVPGTQLSPSP [A2Y] | 3.56 |
| FAQPMMRPPFGAAAGPGTQLSPSP [V15G] | 2.96 |
| FAQPMMRPPFGAAAHPGTQLSPSP [V15H] | 3.28 |
| FAQPMMRPPFGAAAAPGTQLSPSP [V15A] | 3.54 |
